Test results published in article PMC3225930.

Tests used:
trypsin [1] = assay: enzyme inhibition kinetics (reciprocal plots); trypsin with substrate H-D-Phe-Pip-Arg-pNA (S-2238, 0-2 mM), 50 mM Tris-HCl pH 7.8, 25 °C; Spi1C pre-incubated with the enzyme for 15 min; pNA read at 405 nm; Spi1C at 0, 22.7, 45.4 and 68.1 nmol/L in the Lineweaver-Burk plots
α-chymotrypsin [2] = assay: enzyme inhibition kinetics (reciprocal plots); α-chymotrypsin with substrate N-benzoyl-tyrosine ethyl ester (BTEE, 0-2 mM), 50 mM Tris-HCl pH 7.8, 25 °C; read at 253 nm; Spi1C at 0, 22.7, 45.4 and 68.1 nmol/L in the Lineweaver-Burk plots
α-chymotrypsin [3] = molecular target: α-chymotrypsin
trypsin [4] = molecular target: trypsin

Ki (trypsin [1]): 15.2 nM | Ki (α-chymotrypsin [2]): 17.9 nM | specific inhibitor activity (inhibition of α-chymotrypsin activity) (α-chymotrypsin [3]): 3640 U/mg | specific inhibitor activity (inhibition of trypsin activity) (trypsin [4]): 6940 U/mg
Substance: recombinant Spi1C protein (natural protein)
